For the test, the target named is phage-displayed CTXD of SEQ ID NO: 24 (bacteriophage M13). The test can be described thus: Co-bead test, phage display (FIG. 3).

We go through one molecule from patent US20240115717A1 (VRG THERAPEUTICS KFT, published 2024).

B1: his-tagged MMP-2 (Co-bead test; ProSpec #ENZ-769) (enzyme)
chain: YNFFPRKPKWDKNQITYRIIGYTPDLDPETVDDAFARAFQVWSDVTPLRFSRIHDGEADIMINFGRWEHGDGYPFDGKDGLLAHAFAPGTGVGGDSHFDDDELWTLGEGQVVRVKYGNADGEYCKFPFLFNGKEYNSCTDTGRSDGFLWCSTTYNFEKDGKYGFCPHEALFTMGGNAEGQPCKFPFRFQGTSYDSCTTEGRTDGYRWCGTTEDYDRDKKYGFCPETAMSTVGGNSEGAPCVFPFTFLGNKYESCTSAGRSDGKMWCATTANYDDDRKWGFCPDQGYSLFLVAAHEFGHAMGLEHSQDPGALMAPIYTYTKNFRLSQDDIKGIQELYGASPDIDLGTGPTPTLGPVTPEICKQDIVFDGIAQIRGEIFFFKDRFIWRTVTPRDKPMGPLLVATFWPELPEKIDAVYEAPQEEKAVFFAGNEYWIYSASTLERGYPKPLTSLGLPPDVQRVDAAFNWSKNKKTYIFAGDKFWRYNEVKKKMDPGFPKLIADAWNAIPDNLDAVVDLQGGGHSYFFKGAYYLKLENQSLKSVKFGSIKSDWLGC
notes: range 110-660; also called matrix metalloproteinase 2
Turning to B1, the binding result was “binds”.
